In article PMC11970506:

Target: POTRA1, 2 construct of BamA (E. coli)
Assay: SPR; Biacore T100; POTRA1, 2 immobilised by amine coupling to a CM5 chip; SurA flowed at 0 to 10 mg/ml; 25 mM MES, 150 mM NaCl, pH 6.5, 25°C

In the case of “survival protein A (SurA), without the signal sequence (amino acids 21 to 428) (from UniProt P0ABZ6 21-428) (natural protein)”, the Kd is reported as 16 µM.
